Test results reported in the supplement of paper PMC7877785.
± gives the uncertainty stated by the source.

Test: self-splicing fitness, log relative to wild type (ln ratio); higher = more splicing; Tetrahymena group I intron in knt gene, E. coli kanamycin selection, DiMSum; sequences stand for … in CUCUCU…GGAGGGAAAAGUUAUCAGGCAUGCACCUGGUAGCUAGUCUUUAAACCAAUAGAUUGCAUCGGUUUAAAAGGCAAGACCGUCAAAUUGCGGGAAAGGGGUCAACAGCCGUUCAGUACCAAGUCUCAGGGGAAACUUUGAGAUGGCCUUGCAAAGGGUAUGGUAAUAAGCUGACGGACAUGGUCCUAACCACGCAGCCAAGUCCUAAGUCAACAGAUCUUCUGUUGAUAUGGAUGCAGUUCACAGACUAAAUGUCGGUCGGGGAAGAUGUAUUCUUCUCAUAAGAUAUAGUCGGACCUCUCCUUAAUGGGAGCUAGCGGAUGAAGUGAUGCAACACUGGAGCCGCUGGGAACUAAUUUGUAUGCGAAAGUAUAUUGAUUAGUUUUGGAGUACUCGUGGUCG
Procedure, shortened: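 Pooled colonies went to amplicon sequencing on an Illumina HiSeq 2500 after six replicate transformations. The plates were LB agar with 100 μg/mL carbenicillin, 50 μM IPTG and 0.2% rhamnose, with or without 25 μg/mL kanamycin, incubated overnight at 37°C or 30°C. The E. coli BL21(DE3) library had all eight P1ex-region intron nucleotides randomised, the intron placed in the knt kanamycin-resistance gene on pET-22b(+). DiMSum fitness is the error-weighted combination of replicate fold changes, kanamycin against none, normalised to wild type.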

## CCCAAGCAAUAUUACGUGAU
30 °C
  self-splicing fitness (ln): -3.67 ± 0.13
37 °C
  self-splicing fitness (ln): -2.45 ± 0.16

## CCCAAGCAAUAUUACGUUUU
30 °C
  self-splicing fitness (ln): -3.95 ± 0.18
37 °C
  self-splicing fitness (ln): -3.26 ± 0.2

## CCCCAGCAAUAUUACGACCA
30 °C
  self-splicing fitness (ln): -2.81 ± 0.18
37 °C
  self-splicing fitness (ln): -1.43 ± 0.16

## CCCCAGCAAUAUUACGAGAA
30 °C
  self-splicing fitness (ln): -3.4 ± 0.29
37 °C
  self-splicing fitness (ln): -2.37 ± 0.23

## CCCCAGCAAUAUUACGAGCU
30 °C
  self-splicing fitness (ln): -3.85 ± 0.19
37 °C
  self-splicing fitness (ln): -2.85 ± 0.2

## CCCCAGCAAUAUUACGAUAA
37 °C
  self-splicing fitness (ln): -1.49 ± 0.22

## CCCCAGCAAUAUUACGAUCG
30 °C
  self-splicing fitness (ln): -2.85 ± 0.13
37 °C
  self-splicing fitness (ln): -0.917 ± 0.14

## CCCCAGCAAUAUUACGCCAC
30 °C
  self-splicing fitness (ln): -3.09 ± 0.13
37 °C
  self-splicing fitness (ln): -0.923 ± 0.16

## CCCCAGCAAUAUUACGCCCA
30 °C
  self-splicing fitness (ln): -2.11 ± 0.26
37 °C
  self-splicing fitness (ln): -1.37 ± 0.25

## CCCCAGCAAUAUUACGCUAC
30 °C
  self-splicing fitness (ln): -2.29 ± 0.17
37 °C
  self-splicing fitness (ln): -2.05 ± 0.22

## CCCCAGCAAUAUUACGGAUA
30 °C
  self-splicing fitness (ln): -3.92 ± 0.24
37 °C
  self-splicing fitness (ln): -2.65 ± 0.16

## CCCCAGCAAUAUUACGGGGC
30 °C
  self-splicing fitness (ln): -2.95 ± 0.1
37 °C
  self-splicing fitness (ln): -3.43 ± 0.17

## CCCCAGCAAUAUUACGGUAC
30 °C
  self-splicing fitness (ln): -3.84 ± 0.25
37 °C
  self-splicing fitness (ln): -2.66 ± 0.21

## CCCCAGCAAUAUUACGGUCC
30 °C
  self-splicing fitness (ln): -3.86 ± 0.18
37 °C
  self-splicing fitness (ln): -2.9 ± 0.27

## CCCCAGCAAUAUUACGUAAA
30 °C
  self-splicing fitness (ln): -3.91 ± 0.17
37 °C
  self-splicing fitness (ln): -2.89 ± 0.26

## CCCCAGCAAUAUUACGUAAG
30 °C
  self-splicing fitness (ln): -3.18 ± 0.12
37 °C
  self-splicing fitness (ln): -1.33 ± 0.12

## CCCCAGCAAUAUUACGUAAU
30 °C
  self-splicing fitness (ln): -3.53 ± 0.11
37 °C
  self-splicing fitness (ln): -1.67 ± 0.11

## CCCCAGCAAUAUUACGUCGC
30 °C
  self-splicing fitness (ln): -3.65 ± 0.18
37 °C
  self-splicing fitness (ln): -2.34 ± 0.2

## CCCCAGCAAUAUUACGUCUG
30 °C
  self-splicing fitness (ln): -3.45 ± 0.16
37 °C
  self-splicing fitness (ln): -2.04 ± 0.14

## CCCCAGCAAUAUUACGUGGG
30 °C
  self-splicing fitness (ln): -3.83 ± 0.12
37 °C
  self-splicing fitness (ln): -2.81 ± 0.14

## CCCCAGCAAUAUUACGUGUA
30 °C
  self-splicing fitness (ln): -3.17 ± 0.11
37 °C
  self-splicing fitness (ln): -2.75 ± 0.13

## CCCCAGCAAUAUUACGUUAC
30 °C
  self-splicing fitness (ln): -4.86 ± 0.46
37 °C
  self-splicing fitness (ln): -2.37 ± 0.28

## CCCCAGCAAUAUUACGUUGU
30 °C
  self-splicing fitness (ln): -3.93 ± 0.12
37 °C
  self-splicing fitness (ln): -2.77 ± 0.13

## CCCGAGCAAUAUUACGACGA
30 °C
  self-splicing fitness (ln): -3.44 ± 0.43
37 °C
  self-splicing fitness (ln): -1.6 ± 0.2

## CCCGAGCAAUAUUACGAGUA
30 °C
  self-splicing fitness (ln): -3.01 ± 0.16
37 °C
  self-splicing fitness (ln): -2.37 ± 0.14

## CCCGAGCAAUAUUACGCAUA
30 °C
  self-splicing fitness (ln): -3.7 ± 0.43
37 °C
  self-splicing fitness (ln): -2.06 ± 0.21

## CCCGAGCAAUAUUACGCCAA
30 °C
  self-splicing fitness (ln): -3.35 ± 0.31
37 °C
  self-splicing fitness (ln): -2.12 ± 0.26

## CCCGAGCAAUAUUACGCCUC
37 °C
  self-splicing fitness (ln): -1.77 ± 0.34

## CCCGAGCAAUAUUACGCGCA
30 °C
  self-splicing fitness (ln): -3.47 ± 0.34
37 °C
  self-splicing fitness (ln): -1.28 ± 0.3

## CCCGAGCAAUAUUACGCGUU
30 °C
  self-splicing fitness (ln): -4.43 ± 0.3
37 °C
  self-splicing fitness (ln): -2.22 ± 0.28

## CCCGAGCAAUAUUACGCUGU
30 °C
  self-splicing fitness (ln): -4.16 ± 0.31
37 °C
  self-splicing fitness (ln): -2.62 ± 0.27

## CCCGAGCAAUAUUACGGUGA
30 °C
  self-splicing fitness (ln): -2.19 ± 0.1
37 °C
  self-splicing fitness (ln): -1.32 ± 0.097

## CCCGAGCAAUAUUACGGUGC
30 °C
  self-splicing fitness (ln): -4.61 ± 0.32
37 °C
  self-splicing fitness (ln): -2.77 ± 0.16

## CCCGAGCAAUAUUACGGUGU
30 °C
  self-splicing fitness (ln): -3.28 ± 0.1
37 °C
  self-splicing fitness (ln): -1.67 ± 0.094

## CCCGAGCAAUAUUACGGUUA
30 °C
  self-splicing fitness (ln): -2.05 ± 0.1
37 °C
  self-splicing fitness (ln): -1.36 ± 0.1

## CCCGAGCAAUAUUACGUAGG
30 °C
  self-splicing fitness (ln): -2.04 ± 0.11
37 °C
  self-splicing fitness (ln): -1.16 ± 0.14

## CCCGAGCAAUAUUACGUAUA
30 °C
  self-splicing fitness (ln): -2.79 ± 0.17
37 °C
  self-splicing fitness (ln): -2.82 ± 0.26

## CCCGAGCAAUAUUACGUCCA
30 °C
  self-splicing fitness (ln): -3.48 ± 0.25
37 °C
  self-splicing fitness (ln): -2.26 ± 0.24

## CCCGAGCAAUAUUACGUCCC
30 °C
  self-splicing fitness (ln): -2.8 ± 0.24
37 °C
  self-splicing fitness (ln): -2.3 ± 0.49

## CCCGAGCAAUAUUACGUGAC
37 °C
  self-splicing fitness (ln): -2.41 ± 0.3

## CCCGAGCAAUAUUACGUUAG
30 °C
  self-splicing fitness (ln): -3.6 ± 0.17
37 °C
  self-splicing fitness (ln): -2.8 ± 0.22

## CCCGAGCAAUAUUACGUUUC
30 °C
  self-splicing fitness (ln): -3.44 ± 0.2
37 °C
  self-splicing fitness (ln): -3.54 ± 0.24

## CCCUAGCAAUAUUACGAAGC
30 °C
  self-splicing fitness (ln): -2.97 ± 0.43
37 °C
  self-splicing fitness (ln): -2.92 ± 0.27

## CCCUAGCAAUAUUACGACAA
30 °C
  self-splicing fitness (ln): -3.22 ± 0.35
37 °C
  self-splicing fitness (ln): -2.1 ± 0.28

## CCCUAGCAAUAUUACGACGG
30 °C
  self-splicing fitness (ln): -2.7 ± 0.14
37 °C
  self-splicing fitness (ln): -2.87 ± 0.34

## CCCUAGCAAUAUUACGACUA
30 °C
  self-splicing fitness (ln): -2.51 ± 0.29
37 °C
  self-splicing fitness (ln): -2.21 ± 0.21

## CCCUAGCAAUAUUACGCCAU
30 °C
  self-splicing fitness (ln): -4.3 ± 0.42
37 °C
  self-splicing fitness (ln): -2.43 ± 0.39

## CCCUAGCAAUAUUACGCGUA
30 °C
  self-splicing fitness (ln): -2.29 ± 0.31
37 °C
  self-splicing fitness (ln): -0.911 ± 0.2
